Data published in patent publication US7205387B2, “Recombinant polypeptide useful for neurotrophin receptor mediated gene delivery and as neurotrophin agonist” (Agency for Science, Technology and Research, priority 2003, dated 2007).

Key:
plasmid DNA [1] = test: Atomic force microscopy of polypeptide-DNA complexes; format: physicochemical
Protocol: DNA samples, polypeptide-DNA complexes, and polypeptide-polycation-DNA complexes were prepared with a DNA concentration of 0.02 mg/ml. The samples were diluted ten-fold in HPLC-grade water, and 20 μl of each sample was deposited onto mica discs. After one minute, the mica discs were washed with HPLC-grade water and dried in a stream of filtered air. Images were acquired on a Nanoscope IIIa atomic force microscope (Digital Instruments, Santa Barbara, Calif., USA) operating in tapping mode in air, using Nanoprobe Silicon tips (Digital Instruments).

plasmid DNA [2] = test: DNA retardation assay (agarose gel electrophoresis); format: binding
Protocol: This assay qualitatively assesses the ability of a polypeptide or polycation to bind to DNA and thus to retard its migration (by decreasing its charge/mass ratio) through an agarose gel under electrophoresis. For a range of N/P ratios, polypeptide was added to 0.1 μg of plasmid DNA made up to 20 μl with either HEPES-buffered saline (HBS, 150 mM NaCl, 29 mM HEPES, pH 7.3) or 5% glucose. The mixtures were vortexed and incubated at room temperature for 30 minutes before being subjected to electrophoresis in a 0.8–1.0% Tris-borate-EDTA agarose gel stained with ethidium bromide for visualization under ultraviolet light.

B1: SPKR4NL1-2: chimeric protein: (SPKR)4 DNA-binding domain, α-helical linker, targeting domain with loops 1 and 2 of NGF (aa 17–67), His10 tag (protein)
chain: MGHHHHHHHHHHSSGHIEGRHMSPKRSPKRSPKRSPKRGGTYLSEDELKAAEAAFKRHNPTGSCSVSVWVGDKTTATDIKGKEVMVLGEVNINNSVFKQYFFETKCRDPNPVDSG
modifications: SPKR4NL1-2
- DNA condensation seen by atomic force microscopy, with PEI600 (plasmid DNA [1]; PEI600 (N/P ratio of 5) added): compact nanoparticles are formed
- DNA condensation seen by atomic force microscopy, peptide alone (plasmid DNA [1]; peptide and plasmid DNA without polycation): only partially condenses plasmid DNA
- DNA binding / retardation of DNA migration (in words) (plasmid DNA [2]): reduced the mobility of DNA
